We go through one substance from doi:10.1101/2025.05.15.654217.

The target of the assay is 3×FLAG–SpaO^L-V5pBpa (Salmonella enterica serovar Typhimurium SL1344) (UniProt P40699). Briefly: cross-linking.
Sequence of UniProt P40699 (P40699 whole entry, looked up): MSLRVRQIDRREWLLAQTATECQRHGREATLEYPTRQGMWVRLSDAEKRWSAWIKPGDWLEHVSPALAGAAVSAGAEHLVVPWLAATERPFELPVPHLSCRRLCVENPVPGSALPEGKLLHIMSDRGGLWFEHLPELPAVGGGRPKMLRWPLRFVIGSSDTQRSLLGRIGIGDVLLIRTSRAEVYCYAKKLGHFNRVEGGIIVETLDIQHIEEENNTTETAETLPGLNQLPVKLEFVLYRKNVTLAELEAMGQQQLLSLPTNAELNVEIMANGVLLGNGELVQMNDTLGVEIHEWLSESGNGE

Turning to “M45-SpaO^short F34pBpa (natural protein)”, the stoichiometry N (SpaO^short per SpaO^L) turned out to be 2.
